Paper PMC3836734

Target: Fc neonatal receptor (FcRn) (human (endogenous in HEC-1A)) (UniProt P55899)
Sequence of UniProt P55899 (P55899 whole entry, looked up, tested part not stated): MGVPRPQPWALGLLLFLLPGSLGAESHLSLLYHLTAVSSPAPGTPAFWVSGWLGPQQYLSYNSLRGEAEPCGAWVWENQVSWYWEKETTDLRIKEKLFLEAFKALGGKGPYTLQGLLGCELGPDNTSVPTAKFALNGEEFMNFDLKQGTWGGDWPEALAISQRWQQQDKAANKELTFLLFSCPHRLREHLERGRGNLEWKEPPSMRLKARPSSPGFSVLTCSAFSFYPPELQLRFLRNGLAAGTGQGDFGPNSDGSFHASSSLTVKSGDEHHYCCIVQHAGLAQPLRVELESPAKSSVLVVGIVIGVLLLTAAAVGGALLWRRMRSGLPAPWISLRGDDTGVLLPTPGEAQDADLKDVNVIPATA

Substance: mAb VRC01, IgG1 (antibody)
- transcytosis of IgG alone (50 µg/ml) across HEC-1A cells, IgG in subnatant fluid by ELISA after 12 hours; about 0.4% at pH 7.4: 1.3%
